Results reported in patent US5599792A, “Bone-stimulating, non-vasoactive parathyroid hormone variants” (Allelix Biopharmaceuticals Inc., priority 1994, dated 1997).
Residue numbers refer to the chain shown, from its start.

B1: [Val^8 Leu^18 ]hPTH (protein, UniProt P01270 32-115, looked up, variant M8V M18L)
Parathyroid hormone: SVSEIQLVHNLGKHLNSLERVEWLRKKLQDVHNFVALGAPLAPRDAGSQRPRKKEDNVLVESHEKSLGEADKADVNVLTKAKSQ
modifications: Parathyroid hormone
B2: [Cys^8 Leu^18 ]hpTH (protein, UniProt P01270 32-115, looked up, variant M8C M18L)
Parathyroid hormone: B1 Parathyroid hormone with V8C
B3: [Cys^8 ]hPTH (protein, UniProt P01270 32-115, looked up, variant M8C)
Parathyroid hormone: B1 Parathyroid hormone with V8C, L18M
B4: [Ala^8 ]hPTH (protein, UniProt P01270 32-115, looked up, variant M8A)
Parathyroid hormone: B1 Parathyroid hormone with V8A, L18M
modifications: Parathyroid hormone
B5: [Lys^8 Leu^18 ]: structurally related human PTH variant presented for comparison; Met8 replaced by Lys, Leu at 18 (protein, UniProt P01270 32-115, looked up, variant M8K M18L)
Parathyroid hormone: B1 Parathyroid hormone with V8K
modifications: Parathyroid hormone

The molecules below were run on rat osteosarcoma cells of the UMR line (UMR-106), adenylate cyclase activity (assay: UMR-106 based adenylate cyclase assay (cAMP formation)). Settings: UMR-106 cells, radiometric cAMP formation; read-out: EC50 (concentration of PTH or variant effective for half-maximal stimulation of adenylate cyclase activity).
Type: cell-based
Text: In the present specification, "bone stimulating activity" is defined in the context of the osetosarcoma-based adenylate cyclase assay employed conventionally in the art. Briefly, this assay provides an in vitro determination of the extent to which PTH stimulates adenylate cyclase activity in rat osteosarcoma cells of the `UMR` lineage, and thus provides an indication of PTH effects on bone tissue in vivo. Protocols for conducting the assay have been described by Rodan et al, 1983, J. Clin. Invest., 72:1511 (in which the osteosaracoma cells of the ROS lineage are employed) and by Rabbani et al, 1988, Endocrinol., 123:2709 (which employs the line UMR-106).
Thawed or fresh samples of human PTH(1-84) and of PTH variants obtained as described above were then evaluated for biological activity in a UMR-106 based adenylate cyclase assay and the protocol as described by Rabbini et al, 1988, Endocrinology, 123:2709, which is incorporated herein by reference. As noted, rat osteosarcoma cells of the UMR line are stimulated by PTH to produce adenylate cyclase, an enzyme which catalyzes intracellular conversion of ATP to its cylic monophosphate analogue, cAMP. In this assay therefore, PTH activity is determined by assaying radiometrically the formation of cAMP in PTH-stimulated UMR cells. The results of the assays, expressed in terms of EC50 (concentration of PTH or variant effective for half-maximal stimulation of adenylate cyclase activity), are presented in Table 1.

EC50 | Molecule
2 nM | human PTH(1-84)
110 nM | B1
200 nM | B2
400 nM | B3
1200 nM | B4
> 5000 nM | B5
